In publication PMC10746158 (mBio, 2023):

Target: the molecule itself
Assay: SEC; HiLoad 16/60 Superdex 200 pg; 150 mM NaCl, 50 mM Tris, 10 mM MgCl2, pH 8.0; monodisperse peak at ~60 kDa against 30.5 kDa for the monomer

B1: Sulfolobus acidocaldarius GPN-loop GTPase SaGPN (Saci_1281) (enzyme)
chain: YFIFVLGTAGSGKTTLVKALQDYLLNNELDTAIINLDPAVEVLPYKPDIDAREYVDVYDVMNKYELGPNSSLVISVDLLLTKAKELKEDLNQLQANYVLVDTPGQIELFAYRDTGKILSSFISEGSKSVSVFLFDSYLSKDPKSFLSLFLLSSSIKFRIDMPQISVLSKVDLLSSSELERMRSWIEDGSIIDELGSIDEYSFELVKTIVENLESFPIPVSSTNFSGLDQLYAEVQKVLAGGEDFETEEPNPRL
notes: SaGPN (Saci_1281), the solitary GPN-loop GTPase of Sulfolobus acidocaldarius, Uniprot Q4J9A7; residues Y2-A240 were built in both structures, 14 amino acids at the C-terminus are disordered; printed mass 30.5 kDa; Crystallised with GppNHp or GDP and Mg2+; source: E. coli BL21(DE3) Rosetta, purified (heat treatment, Ni-NTA, SEC); not shown: His10, N-terminal, kept
How did the “stoichiometry N” value turn out when B1 was run?
Its value is 2.
